B1: FJ1427_P035MP07F12 (VHH)
VHH: EVQLVESGGGLVQAGDSLRLSCVASGRTLSRCAMGWFRKAPGKEREYVAISSWGGDTFYEDSVEGRFTFSRDNAKNTVYLQMNSLRPEDTAVYYCAAAPTSFATTAYSSSNSYAYWGQGTQVTVSS
notes: Tested as soluble VHH fragment in periplasmic extract (P.E.); also called Clone nr; 670
B2: 27-MP04G01 VHH (periplasmic extract) (VHH)
VHH: QVQLVESGGGLVQAGGSLTLSCAAPGRTFGTDVVGWFRQAPGKEREFVASISRSGDGIYYDDSVKGRFTISRNNAWNTVNLQMNSLKVEDTAVYYCAAGDGWSTYDYWGQGTQVTVSS
notes: soluble VHH in periplasmic extract
B3: 27-MP04G01 VHH-hFc, monospecific bivalent (Fc fusion)
chain: QVQLVESGGGLVQAGGSLTLSCAAPGRTFGTDVVGWFRQAPGKEREFVASISRSGDGIYYDDSVKGRFTISRNNAWNTVNLQMNSLKVEDTAVYYCAAGDGWSTYDYWGQGTQVTVSS
notes: IgG1 Fc LALA-PG; not shown: human IgG1 CH2 and CH3 domains (Fc)
B4: 31-MP04E03 VHH (periplasmic extract) (VHH)
VHH: QVQLVESGGGLVQAGGSLRLSCTGYGGAFTGYALGWFRQAPGKEREFVARINWSGSFTYYASSVKGRFTISRDNAKNTMYLQMNNLKPEDTAVYYCAADNPSTLATDYDNWGQGTQVTVSS
notes: as for B2
B5: 35-MP07G01 VHH-hFc, monospecific bivalent (Fc fusion)
chain: QVQLQESGGGLVQGGGSLRLSCAASGGIFSSYAMGWFRQAPGKEREFVAAISRSGRSTNYADSVKGRFTISRDNAKSTVYLQMNSLKPEETAVYYCAAGRYYNSAYDPSPGDFGSWGHGTQVTVSS
notes: as for B3
B6: 29-MP04H02 VHH (periplasmic extract) (VHH)
VHH: QVQLVESGGGLVQAGGSLRLACVASGLTFDNYYMGWFRQAPGKEREFVAGIIWNGDHTAYADSIKGRFTISRDNAKNTAYLRMNSLKPEDTAVYYCAATFWIERATTPDIGQYAYWGQGTQVTVSS
notes: as for B2
B7: 29-MP04H02 VHH-hFc, monospecific bivalent (Fc fusion)
chain: QVQLVESGGGLVQAGGSLRLACVASGLTFDNYYMGWFRQAPGKEREFVAGIIWNGDHTAYADSIKGRFTISRDNAKNTAYLRMNSLKPEDTAVYYCAATFWIERATTPDIGQYAYWGQGTQVTVSS
notes: as for B3
B8: 32-MP04A08 VHH (periplasmic extract) (VHH)
VHH: QVQLVESGGGLVQAGGSLRLSCAASGRTFGSTAVGWFRQVPGKEREFVSAINRSGSATTYADSVKGRFTISRDNAKNTVYLQMNSLTPEDTGVYYCAADSLPYGRPYYFQRSAGEYDYWGQGTQVTVSS
notes: as for B2
B9: 32-MP04A08 VHH-hFc, monospecific bivalent (Fc fusion)
chain: QVQLVESGGGLVQAGGSLRLSCAASGRTFGSTAVGWFRQVPGKEREFVSAINRSGSATTYADSVKGRFTISRDNAKNTVYLQMNSLTPEDTGVYYCAADSLPYGRPYYFQRSAGEYDYWGQGTQVTVSS
notes: as for B3
B10: 36-MP07F02 VHH (periplasmic extract) (VHH)
VHH: QVQLVESGGGLVQAGGSLRLSCAASGRTLSRYAMGWFRQAPGSEREFVAASSWGGDTFYADSVEGRFTFSRDNAKNAVYLQMNSLQPEDTAAYYCAAAPTSFPTTAYSSSNSYAYWGQGTQVTVSS
notes: as for B2
B11: 36-MP07F02 VHH-hFc, monospecific bivalent (Fc fusion)
chain: QVQLVESGGGLVQAGGSLRLSCAASGRTLSRYAMGWFRQAPGSEREFVAASSWGGDTFYADSVEGRFTFSRDNAKNAVYLQMNSLQPEDTAAYYCAAAPTSFPTTAYSSSNSYAYWGQGTQVTVSS
notes: as for B3
B12: 28-MP04D02 VHH-hFc, monospecific bivalent (Fc fusion)
chain: QVQLVESGGGLVQAGGSLRLSCAASGRTLSRYAMGWFRQAPGKEREFVTANSWGGDTYYADSVQGRFTFSRDNAKNTVYLQMNSLQPEDTAVYYCAAAPTSFATTAYSGSNSYAYWGQGTQVTVSS
notes: IgG1 Fc LALA-PG; also called clone 28; not shown: human IgG1 CH2 and CH3 domains (Fc)
B13: 37-MP07F09 VHH-hFc, monospecific bivalent (Fc fusion)
chain: QVQLVESGGGLVQAGGSLRLSCAASGRTLSRYAMGWFRQAPGKEREYVAIDSWGGDTFYADSVEGRFTFSRDNAKNEVYLQMNSLQPEDTAVYYCAGAPTSFATTAYSSSNSYRYWGQGTQVTVSS
notes: as for B3
B14: 38-MP07A11 VHH-hFc, monospecific bivalent (Fc fusion)
chain: QVQLVESGGGLVQAGGSLRLSCAASGRSLSRDAMGWFRQAPGKEREFVAVMSWGGDTFYTDSVEGRFTFSRDNAKNAVYLEMNDLQPEDTAVYYCAAAPTSFATTAYSSSNSYSYWGRGTQVTVSS
notes: as for B3
B15: 34-MP04A12 VHH-hFc, monospecific bivalent (Fc fusion)
chain: QVQLVESGGGLVQAGSSLRLSCAASGRTLSRLAMGWFRQAPGKEREFVAVNSWGGDTFYADSVEGRFTYSRDNAKSAVYLQMNSLQPEDTAVYYCAAAPTSFATTAYSSSNSYAYWGQGAQVTVSS
notes: as for B3
B16: FJ1427_P035MP07C12 (VHH)
VHH: QVQLVESGGGLVQAGGSLRLSCAASGRSLSRDAMGWFRQAPGKEREFVAVMSWGGDTFYTDSVEGRFTFSRDNAKNAVYLEMNDLQPEDTAVYYCAAAPTSFATTAYSSSNSYSYWGRGTQVTVSS
notes: Tested as soluble VHH fragment in periplasmic extract (P.E.); also called Clone nr

Assays:
[1] = target: T1, human IL-2Rγ (common cytokine receptor γ-chain) (human, UniProt P31785 23-262, limits assumed); assay: SPR off-rate ranking, periplasmic extract over immobilised human IL-2Rγ
T1 construct: Recombinant human IL-2Rγ protein coated on the ELISA plate or immobilised on the CM5 chip; also called hu IL-2R; CD132
T1 sequence: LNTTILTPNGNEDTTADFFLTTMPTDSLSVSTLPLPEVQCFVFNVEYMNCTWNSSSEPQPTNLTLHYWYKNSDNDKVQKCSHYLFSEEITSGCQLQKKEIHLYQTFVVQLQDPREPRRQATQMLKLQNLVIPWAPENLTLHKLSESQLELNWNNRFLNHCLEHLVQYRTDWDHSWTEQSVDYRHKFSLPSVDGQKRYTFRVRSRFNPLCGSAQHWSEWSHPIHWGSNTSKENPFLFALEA
Description: (§1) SPR was performed to determine dissociation rates using Biacore 3000 instrument (GE Healthcare). Briefly, human and mouse IL-2R proteins were immobilized on carboxylmethyl dextran sensor chip (CM5) at approximately 2500 RUs using amine coupling in acetate buffer (GE Healthcare). The VHH-containing P.E. were loaded with a flow rate of 30 uL/min and the off-rates were measured over a 120s period.

[2] = target: T2, mouse IL-2Rγ (mouse, UniProt P34902 23-263, limits assumed); assay: binding ELISA, periplasmic extract on coated mouse IL-2Rγ
T2 construct: Recombinant mouse IL-2Rγ protein coated on the ELISA plate or immobilised on the CM5 chip; also called mo IL-2R
T2 sequence (looked up): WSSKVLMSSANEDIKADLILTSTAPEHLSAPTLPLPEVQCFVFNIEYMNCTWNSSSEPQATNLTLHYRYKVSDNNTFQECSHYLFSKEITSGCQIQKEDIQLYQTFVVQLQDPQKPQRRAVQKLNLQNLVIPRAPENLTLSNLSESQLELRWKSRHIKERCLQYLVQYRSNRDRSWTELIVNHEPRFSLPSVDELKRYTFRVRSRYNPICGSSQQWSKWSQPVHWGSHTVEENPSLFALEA
Description: (§2) In a binding ELISA, human or mouse IL-2Rα, IL-2Rβ and IL-2Rγ proteins were coated directly on maxisorp microtiter plates overnight at 4° C. Free binding sites were blocked using 4% Marvel in PBS for 1 hour. Next, 1:5 dilution of P.E. in 1% Marvel/PBS were added to wells and incubated for 1 hour. […] Binding specificity was determined based on O.D. at 450 nm values compared to negative controls.

[3] = target: T1, human IL-2Rγ (common cytokine receptor …); assay: binding ELISA, periplasmic extract on coated human IL-2Rγ
Description: as §2

[4] = target: T2, mouse IL-2Rγ; assay: SPR off-rate ranking, periplasmic extract over immobilised mouse IL-2Rγ
Description: as §1

[5] = target: T3, human common cytokine receptor γ-chain (γc; IL-2Rγ; CD132), recombinant protein (human, UniProt P31785 23-262); assay: P.E. binding ELISA
T3 construct: also called human IL-2R subunit CD132
T3 sequence: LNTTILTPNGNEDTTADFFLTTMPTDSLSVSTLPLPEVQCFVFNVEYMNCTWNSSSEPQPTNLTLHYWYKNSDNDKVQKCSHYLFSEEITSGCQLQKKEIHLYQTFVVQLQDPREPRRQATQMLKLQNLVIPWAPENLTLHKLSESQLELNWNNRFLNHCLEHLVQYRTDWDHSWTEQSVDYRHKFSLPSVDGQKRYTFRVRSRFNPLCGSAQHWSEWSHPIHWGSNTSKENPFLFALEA
Outline: (§3)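 Read-out: OD at 450 nm, specificity called versus negative controls. Receptor chains (human or mouse IL-2Rα, β, γ) were coated directly overnight at 4° C; 4% Marvel/PBS block 1 h; P.E. at 1:5 dilution in 1% Marvel/PBS incubated 1 h.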

[6] = target: T3, human common cytokine receptor γ-chain …; assay: P.E. off-rate SPR
Outline: (§4)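 Dissociation rates of nanobody (VHH) periplasmic extracts were measured across a 120s window on an amine-coupled carboxymethyl dextran surface bearing about 2500 RUs of receptor; injection flow 30 uL/min.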

[7] = target: T4, cynomolgus monkey IL-2Rγ/CD132 subunit (cynomolgus monkey, UniProt A0A2K5VGJ6 23-262); assay: ELISA, bivalent VHH-hFc
T4 construct: also called Cyno IL-2R subunit
T4 sequence: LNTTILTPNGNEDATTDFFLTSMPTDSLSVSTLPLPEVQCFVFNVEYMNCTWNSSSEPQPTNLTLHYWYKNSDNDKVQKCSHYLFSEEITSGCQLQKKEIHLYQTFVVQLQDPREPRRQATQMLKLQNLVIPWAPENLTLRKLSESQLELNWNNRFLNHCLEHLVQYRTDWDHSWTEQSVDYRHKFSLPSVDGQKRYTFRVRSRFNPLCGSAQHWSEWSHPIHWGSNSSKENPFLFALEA
Outline: (§5)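 Human and cyno receptor subunits coated at 1 μg/mL in PBS pH 7.4 overnight at 4° C, casein-blocked; test antibodies bound 1 h, detected with anti-human IgG Fc-HRP and TMB, A450 (ref 620 nm). EC50 from four-parameter variable-slope nonlinear fit of dose-response binding curves.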

[8] = target: T3, human common cytokine receptor γ-chain …; assay: ELISA, bivalent VHH-hFc
Outline: as §5

[9] = target: T4, cynomolgus monkey IL-2Rγ/CD132 subunit; assay: ELISA, bivalent; EC50 cyno vs human subunit
Description: Monospecific monovalent and bivalent IL-2Rα-, IL-2Rβ- and IL-2Rγ-specific antibodies that were selected on human IL-2R subunits, were evaluated for their cross-reactivity in an ELISA. Human and cynomolgus monkey receptor subunits (Acrobiosystems, KactusBiosystems) were coated at 1 μg/mL in PBS (pH 7.4) in a Maxisorp plate (Nunc) and incubated overnight at 4° C. The plates were further washed with PBS-Tween pH 7.4 and incubated with 1% cascin/PBS-Tween blocking solution for 1 hour shaking at 400 rpm. Subsequently, the plate was washed three times with PBS-Tween pH 7.4, after which the test antibodies diluted in 0.1% casein/PBS-Tween were added to the plate and incubated for 1 hour. The plate was again washed three times, after which goat anti-human IgG Fc (HRP) detection antibody (abcam) was added to the plate and incubated for 30 min. The colouring reaction was performed with TMB (Sigma-Aldrich) and stopped with 0.5N H₂SO₄.
Absorbance was measured at 450 nm with the reference wavelength of 620 nm using spectrophotometer. Final analysis and graphic output were performed with GraphPad Prism version 8 (GraphPad Software). The dose-response binding curves were fit to a nonlinear regression model (log (agonist) vs. response with a variable slope (four parameters)).

[10] = target: T5, mouse IL-2Rγ, recombinant protein (mouse, UniProt P34902 23-263, limits assumed); assay: P.E. binding ELISA
T5 sequence (looked up): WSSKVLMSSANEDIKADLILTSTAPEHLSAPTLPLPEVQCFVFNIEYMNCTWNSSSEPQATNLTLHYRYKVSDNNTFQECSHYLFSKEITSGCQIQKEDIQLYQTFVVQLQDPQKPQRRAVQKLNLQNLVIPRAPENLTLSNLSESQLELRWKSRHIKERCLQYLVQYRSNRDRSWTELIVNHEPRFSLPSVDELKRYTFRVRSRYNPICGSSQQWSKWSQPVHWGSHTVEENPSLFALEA
Outline: as §3

[11] = target: T5, mouse IL-2Rγ, recombinant protein; assay: P.E. off-rate SPR
Outline: as §4

Binder	EC50 [7] [nM]	EC50 [8] [nM]	Fold change [9] [fold]	further results
B1	–	–	–	koff [1]: 0.00197 s⁻¹; P.E. binding ELISA OD450 [2]: 0.341 OD450 nm; P.E. binding ELISA OD450 [3]: 0.823 OD450 nm; koff [4]: 0.00792 s⁻¹
B2	–	–	–	OD450 nm [5]: 0.362 OD450 nm; koff [6]: 0.00131 s⁻¹
B3	0.147	0.131	1.1	–
B4	–	–	–	OD450 nm [10]: 0.495 OD450 nm; koff [11]: 0.283 s⁻¹
B5	–	–	–	binding result [7]: no binding; binding result [8]: no binding
B6	–	–	–	OD450 nm [5]: 0.157 OD450 nm; koff [6]: 0.00625 s⁻¹
B7	0.26	0.179	1.4	–
B8	–	–	–	OD450 nm [5]: 0.407 OD450 nm; koff [6]: 0.0616 s⁻¹
B9	–	0.14	–	binding result [7]: no binding
B10	–	–	–	OD450 nm [5]: 0.896 OD450 nm; koff [6]: 0.00331 s⁻¹
B11	0.121	0.117	1	–
B12	0.113	0.107	1.1	–
B13	0.141	0.137	1	–
B14	0.133	0.113	1.2	–
B15	0.112	0.117	1	–
B16	–	–	–	koff [1]: 0.00197 s⁻¹; P.E. binding ELISA OD450 [2]: 0.071 OD450 nm; P.E. binding ELISA OD450 [3]: 0.426 OD450 nm; koff [4]: 0.0146 s⁻¹
